Data from patent publication US20150266963A1.

T1: human CD70 expressed on the surface of cells (human) (UniProt P32970)
T1 sequence (looked up): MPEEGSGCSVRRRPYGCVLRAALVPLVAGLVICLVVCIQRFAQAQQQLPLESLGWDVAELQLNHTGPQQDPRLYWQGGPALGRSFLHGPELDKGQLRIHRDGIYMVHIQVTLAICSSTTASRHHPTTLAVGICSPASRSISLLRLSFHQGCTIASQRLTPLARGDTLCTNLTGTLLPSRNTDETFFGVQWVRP

T2: recombinant human CD70 (Flag-TNC-CD70) (human) (UniProt P32970)
T2 sequence (looked up): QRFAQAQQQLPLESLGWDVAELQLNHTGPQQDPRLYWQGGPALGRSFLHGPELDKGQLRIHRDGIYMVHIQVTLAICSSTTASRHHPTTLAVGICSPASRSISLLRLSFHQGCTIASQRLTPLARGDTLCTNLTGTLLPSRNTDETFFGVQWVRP

T3: rhesus CD70 on LCL8664 cells (rhesus) (UniProt F7GPA5)
T3 sequence: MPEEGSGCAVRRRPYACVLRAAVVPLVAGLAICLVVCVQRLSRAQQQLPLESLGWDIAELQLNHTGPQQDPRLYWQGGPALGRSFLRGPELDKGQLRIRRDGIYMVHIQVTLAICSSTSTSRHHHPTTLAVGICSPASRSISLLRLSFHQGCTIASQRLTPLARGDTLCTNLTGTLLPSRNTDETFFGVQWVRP


Columns and labels:
[1] = target: T1, human CD70 expressed on the surface of cells (human); assay: cell-based or functional assay
[2] = target: T2, recombinant human CD70 (Flag-TNC-CD70) (human); assay: blocking ELISA; human Flag-TNC-CD70; competitor CD27-Fc
[3] = target: rhesus recombinant CD70 (FLAG-TNC-rhesus CD70) (rhesus); assay: blocking ELISA; rhesus Flag-TNC-CD70; competitor CD27-Fc
[4] = target: cynomolgus monkey Flag-TNC-CD70 (cynomolgus monkey); assay: blocking ELISA; cynomolgus Flag-TNC-CD70; competitor CD27-Fc
[5] = target: T2, recombinant human CD70 (Flag-TNC-CD70) (human); assay: inhibition ELISA; Flag-TNC-CD70 captured by anti-Flag mAb; competitor CD27-Fc
[6] = target: T1, human CD70 expressed on the surface of cells (human); assay: flow cytometry on U266 cells, goat anti human IgG1 FITC [panel U266]
[7] = target: T2, recombinant human CD70 (Flag-TNC-CD70) (human); assay: blocking ELISA; Flag-TNC-CD70 captured by anti-FLAG M2; competitor CD27-Fc 6.5 nM
[8] = target: T3, rhesus CD70 on LCL8664 cells (rhesus); assay: flow cytometry on rhesus LCL8664 cells, goat anti human IgG1 FITC [panel Rhesus monkey]
[9] = target: T1, human CD70 expressed on the surface of cells (human); assay: flow cytometry on U266 cells, 1 h at 4 °C, anti-hIgG1-Fc-FITC or anti-hIgG-Fc-PE [panel U266]
[10] = target: T2, recombinant human CD70 (Flag-TNC-CD70) (human); assay: Biacore; recombinant human CD70 on CM5 chip; Fab injected
[11] = target: T2, recombinant human CD70 (Flag-TNC-CD70) (human); assay: Biacore; recombinant human CD70 on CM5 chip; Fab from papain digestion

| IC50 (ng/ml), IL-8 secretion in Raji / HT1080-CD27 co-culture assay [1] | IC50 [2] | IC50 [3] | IC50 [4] | IC50 [5] | EC50 (read off the curve) [6] | IC50 [7] | EC50 (read off the curve) [8] | EC50 (read off the curve) [9] | koff [10] | koff [11] | Binder |
| --- | --- | --- | --- | --- | --- | --- | --- | --- | --- | --- | --- |
| 55 ng/mL | 0.054 µg/mL | 0.178 µg/mL | 0.112 µg/mL | 0.33 µg/mL | 0.08 µg/mL | 4.97 µg/mL | 0.1 µg/mL | 0.08 µg/mL |  |  | SGN70 (antibody, INN chains, looked up, V domains shown) VH: QVQLVQSGAEVKKPGASVKVSCKASGYTFTNYGMNWVRQAPGQGLKWMGWINTYTGEPTYADAFKGRVTMTRDTSISTAYMELSRLRSDDTAVYYCARDYGDYGMDYWGQGTTVTVSS VL: DIVMTQSPDSLAVSLGERATINCRASKSVSTSGYSFMHWYQQKPGQPPKLLIYLASNLESGVPDRFSGSGSGTDFTLTISSLQAEDVAVYYCQHSREVPWTFGQGTKVEIK |
|  |  |  |  |  |  |  |  |  | 0.0007 s⁻¹ | 0.0007 s⁻¹ | SGN70-Fab (Fab, INN chains, looked up, V domains shown, Fab) VH: QVQLVQSGAEVKKPGASVKVSCKASGYTFTNYGMNWVRQAPGQGLKWMGWINTYTGEPTYADAFKGRVTMTRDTSISTAYMELSRLRSDDTAVYYCARDYGDYGMDYWGQGTTVTVSS VL: DIVMTQSPDSLAVSLGERATINCRASKSVSTSGYSFMHWYQQKPGQPPKLLIYLASNLESGVPDRFSGSGSGTDFTLTISSLQAEDVAVYYCQHSREVPWTFGQGTKVEIK |
